Experimental findings from US20230027592A1 are described below.

The experiment concerns the target Bovine serum albumin (bovine) (UniProt P02769).

In turn, “GluC protease (Mass Spectrometry Grade, Promega V1651) (from UniProt P0C1U8) (enzyme)” came in with a BSA sequence coverage after digestion (nLC-MS/MS) (% BSA sequence coverage) of 93.1.

“Trypsin/LysC protease mix (Mass Spectrometry Grade, Promega V5072) (pool or library)” registered a BSA sequence coverage after digestion (nLC-MS/MS) (% BSA sequence coverage) of 91.3.
